Test results from the RNAGym collection of RNA variant scans (doi:10.1073/pnas.2313332121).

B1: TPR t1 (parent)
chain: GACCAAUCUGCCCUCAGAGCUCGAGAACAUCUUCGGAUGCAGAGGAGGCAGGCUUCGGUGGCGCGAUAGCGCCAACGUCCUCAACCUCCAAUGCAUCCCACCACAUGAUGAUGCCUGAAGAGCCUUGGUUUUUUG

Variants of: B1
Assay: polymerase ribozyme fitness, log enrichment relative to wild type (log ratio); higher = more active; in vitro selection for triplet polymerase activity
Summary of the method: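 After PCR construction and transcription, each subunit's mutant library from a heterodimeric triplet polymerase ribozyme was annealed with a biotinylated primer, the partner subunit and triplets. Incubation was frozen, at −7 °C, and extended constructs were gel-excised, bound to streptavidin beads and amplified by RT-PCR, in one selection round done in triplicate. Fitness is the logarithm of a genotype's enrichment divided by that of the wild type, from inverse-variance-weighted replicate averages of Illumina-sequenced inputs and outputs. The base of the logarithm is 2, and genotypes needed ≥10 input reads and ≥1 read per output.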

| Variant | polymerase ribozyme fitness (log ratio) |
| --- | --- |
| C49U U126A | -1.95 |
| G51A A83G G120U C123G G128U | -2.51 |
| G51A G93U C104U | -3.96 |
| G51A G57C U112G | -1.7 |
| A50G C62A U67A A84G C97U G110C A118G | -8.94 |
| A50G G63A U112A G122A | -1.39 |
| A50U C56A A66U G69U C80G C104G C115G C123U U130C | -8.27 |
| A50G C56U G69C C123G C124G | -5.93 |
| A50U U109A A111C G120U A121G | -6.95 |
| A50U C62U U106A | -1.01 |
| A50C G61U C79G | -2.93 |
| A50U U81A C85G | -0.884 |
| C49U U92A | -3.99 |
| G51A A95U | -3 |
| G51A G57U | -1.5 |
| A50U C56U C73U A83C | -1.69 |
| A50C C53G C86U C88U G107U A121U | -5.3 |
| A50U G57C A119U | -1.85 |
| A50C U55G G58C G61C U81A | 0.349 |
| G51A A90G G113C | -5.54 |
| A50C A111C C115U U129A | -6.02 |
| A50C C89A | -2.41 |
| A50C C70A C82G A84C | -2.37 |
| A50U G52U | -2.39 |

| Variant | polymerase ribozyme fitness (log ratio) |
| --- | --- |
| A50U G52A | -2.66 |
| A50U C82U | -1.15 |
| G51A G52A U54C | -4.49 |
| G51A G52A U112A U116C G128A | -6.33 |
| A50U G110A | -2.67 |
| A50U G110U | -4.06 |
| A50U U78C | -2.19 |
| G51A C124A | -1.48 |
| G51A G77C A95C | -4.86 |
| G51A G61C | -3.7 |
| G51A G61U | -2.94 |
| A50U G135U | -2.36 |
| A50U C88U | -1.71 |
| C49U G52C G63U C124A | -0.717 |
| G51A U78A C88G A121U | -1.45 |
| A50C C88A | -1.03 |
| A50C G69C C104U | -1.11 |
| A50C U55G G58C U81A C124A | 1.51 |
| A50C U87A | -0.514 |
| A50U G120A | -0.296 |
| A50U A83C C89G | -5.74 |
| A50U G60C | -1.06 |
| A50U G60A | -0.0812 |
| A50U C62U U109A A111C G120U A121G | -7.17 |

| Variant | polymerase ribozyme fitness (log ratio) |
| --- | --- |
| A50G C53A C72A | -0.193 |
| A50C A75G A95C C123U | 0.24 |
| A50G C73A C82U | -0.0319 |
| A50U G69U C80G C98U G113A | -3.31 |
| A50C C76U C88U | -1.73 |
| G51A G61U G128C | -5 |
| A50C C72U G93U U112G | -2.29 |
| A50C C101A | -1.83 |
| A50C A100C | -1.68 |
| A50U C86U G93U U112C | -1.3 |
| G51A U54G C72G C80A C82G | -4.89 |
| C49U U55G G63A | -1.98 |
| C49U G63U | -2 |
| G51A G71C U112C | -2.08 |
| A50G G61C | -3.07 |
| A50C C53G C73A U126G | -2.99 |
| A50C C70U U116G G117A | -4.23 |
| A50G C89G | -1.08 |
| A50G G60C C94U U129G | -3.05 |
| A50C U55G G58C G61C U81A C124A | 0.946 |
| G51A C62A G117U U134G | -5.73 |
| A50C C53U A84G | -0.439 |
| A50C G71U A121C | 0.855 |
| A50C C115A | -1.39 |

| Variant | polymerase ribozyme fitness (log ratio) |
| --- | --- |
| A50G C70U A111U | -4.72 |
| A50G C53A C73U | 0.0786 |
| G51A G63U C80A U96G | -5.76 |
| C49U U55A C62U C99U A111U | -7.19 |
| C49U U132C | -0.889 |
| A50C G71U | 0.242 |
| G51C C56U C115U U131A | -4.93 |
| A50C C73G | -1.15 |
| A50G U78C | 0.0914 |
| A50G C53U U129C U130G | -0.774 |
| A50U G128A | -3.35 |
| C49U G110C | -5.17 |
| A50U C70U | -1.67 |
| A50G C64U C88G | -0.539 |
| A50U G71C G117A | -3.1 |
| A50C C56A A66G | -2.8 |
| C49U G77U G113U G122U C124A | -3.66 |
| G51A C73G | -0.931 |
| A50U C62U | -1.15 |
| A50U C62G | -3.56 |
| A50C C62U C115U | -2.55 |
| C49U G63C G93C C124U | -0.998 |
| A50U A83G | -0.122 |
| G51A C64A A84C G117C | -6.48 |

| Variant | polymerase ribozyme fitness (log ratio) |
| --- | --- |
| C49U U129A | -1.47 |
| C49U G63C C85U | -1.05 |
| A50U G60C C123A G127C U132C | -0.878 |
| C49U U81G | -3.78 |
| G51A C123G | -0.157 |
| G51A C123A | -1.89 |
| G51A A74G | -1.96 |
| A50G C73U | 0.871 |
| A50U U81C C114A | -6.09 |
| C49U G58U C62G | -1.16 |
| C49U G57U G110C | -4.9 |
| C49U C123U | 1.01 |
| C49U U78G U96A G113A C115A | -5.23 |
| C49U G93A C97U U116C | -3.84 |
| A50G G57C G61U C88G | -3.3 |
| G51A G60A C80A A95G A111G | -4.57 |
| G51A G57U U81C C101U | -2.52 |
| A50G C62U C82A A121U | 1.97 |
| C49U G51A G63C | -3 |
| A50G G113U | -2.68 |
| A50G G113C | -1.84 |
| A50C U87G C98U | -0.87 |
| C49U G58C A111C | -0.939 |
| A50U C64U A111G U125A | -1.48 |

| Variant | polymerase ribozyme fitness (log ratio) |
| --- | --- |
| A50U C102A | -2.99 |
| A50U U55G G58A | -5.41 |
| A50U C73U G117C C123A | -5.84 |
| A50C C72G U87G G120C U131A | 0.442 |
| A50C G60C | -1.73 |
| A50U G122A | -1.23 |
| G51A C115G | -4.23 |
| A50G C62A | -0.949 |
| A50U G61U C94A G110U | -4.5 |
| C49U G57C | -0.696 |
| A50G G57A C72U U96C C114U | -4.36 |
| A50C C72U U81G C85A | -1.34 |
| A50U U59A | -0.619 |
| A50U U59A G60C C80G C88U | -2.26 |
| A50U C56U G71C C123A | -6.51 |
| A50U C98U G107A C115A | -5.98 |
| C49U C115U | -1.16 |
| G51C | -3.7 |
| G51A | -2.49 |
| A50G C62U U87A | -0.164 |
| G51C C73G C114A | -6.6 |
| A50C A121U | 2.16 |
| A50U C123U | 0.00244 |
| G51C C53A | -4.19 |

| Variant | polymerase ribozyme fitness (log ratio) |
| --- | --- |
| A50U G65A U78G G120A U126A U129G U130A | -7.26 |
| G51A A74G U131A | -1.77 |
| A50C G52C C73U | -4.07 |
| A50G C82U | 0.198 |
| A50U C88U A118U | -0.957 |
| A50G C76G | -0.226 |
| A50G C76U | -0.383 |
| A50G U130G | -0.32 |
| A50G U130C | 0.163 |
| A50U G57U | -1.1 |
| A50U G69C | -1.7 |
| A50C C72U G135A | -1.52 |
| A50C C72G | -0.555 |
| A50C C72U | -0.602 |
| A50C A90C | -2.1 |
| A50C A90U | -2 |
| C49U G77A C123G | 1.03 |
| G51A C64G C101G G113A C123A | -6.84 |
| C49U G60C G127A | -2.38 |
| A50C G69U | -0.0602 |
| G51A C64A U78C A84C G117C | -6.38 |
| G51A C53U C62G G69U C82U G120U | -6.98 |
| A50C G69A G120A G127A | -3.94 |
